Assay results published in paper PMC10834534, “The NMR structure of the Ea22 lysogenic developmental protein from lambda bacteriophage” (Scientific Reports, 2024).

Molecular target: the molecule itself
Experiment: NMR solution structure; 0.6 mM in 5 mM Tris-Cl pH 7.6, 50 mM NaCl, 0.05% NaN3, 308 K; intermolecular distance restraints from a 3D 13C-filtered/13C-separated NOESY on a mixed 12C/13C sample

B1: carboxy-terminal domain (CTD) fragment of λ Ea22 (102–182) (domain or fragment, bacteriophage λ)
chain: SNEVREDGNQFLVVRHPGKTPVIKHCTGDLEEFLRQLIEQDPLVTIDIITHRYYGVGGQWVQDAGEYLHMMSDAGIRIKGEIETAV
notes: Ea22 of bacteriophage lambda, carboxy-terminal domain, residues 102-182 of the 182-residue protein; gene synthesized by ATUM, in plasmid pD441NH; Uniformly 13C,15N (or 15N) labelled for NMR; a mixed 12C/13C dimer was made by mixing 12C/14N and 13C/15N proteins 1:1 in 6 M urea and diluting rapidly; Dimer printed as 21.4 kDa; also called λ Ea22 CTD; Ea22 CTD; not shown: 6xHis, N-terminal, kept
In the case of B1, the “stoichiometry N” value is reported as 2.
